Reference: paper PMC3861454, “Structures of Wnt-Antagonist ZNRF3 and Its Complex with R-Spondin 1 and Implications for Signaling” (PLoS ONE, 2013)

T1: ZNRF3 ectodomain with C-terminal biotin acceptor peptide (C-BAP) tag, biotinylated in vivo (mouse, UniProt Q5SSZ7 53-216, biotin on the biotin acceptor peptide tag (in-vivo biotinylation by BirA))
T1 construct: ZNRF3 ectodomain; also called Biotinylated ZNRF3; source: HEK293-E cells, co-expressed with biotin ligase (BirA); not shown: biotin acceptor peptide (BAP), C-terminal, kept
T1 sequence (looked up): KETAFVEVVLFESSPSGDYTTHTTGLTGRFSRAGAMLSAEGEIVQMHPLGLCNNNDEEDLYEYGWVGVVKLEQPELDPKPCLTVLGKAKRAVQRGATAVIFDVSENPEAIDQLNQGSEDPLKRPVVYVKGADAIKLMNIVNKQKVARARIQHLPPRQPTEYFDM


Legend:
RNF43 (Homo sapiens) [1] = target: RNF43 (Homo sapiens) (UniProt Q68DV7); assay: ITC; settings: cited from earlier work
Sequence of RNF43 (Homo sapiens) (Q68DV7 24-197): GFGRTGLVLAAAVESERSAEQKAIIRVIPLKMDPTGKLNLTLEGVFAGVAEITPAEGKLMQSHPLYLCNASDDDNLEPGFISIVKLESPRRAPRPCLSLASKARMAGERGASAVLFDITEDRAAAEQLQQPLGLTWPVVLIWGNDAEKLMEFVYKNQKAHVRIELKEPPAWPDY

RNF43 (Homo sapiens) [2] = target: RNF43 (Homo sapiens) (UniProt Q68DV7); assay: ITC; settings: cited from earlier work; remark: listed apart in the source
[3] = target: T1, ZNRF3 ectodomain with C-terminal biotin …; assay: SPR; IBIS MX96; biotinylated ZNRF3 immobilised on a G-streptavidin sensor chip at different ligand densities; analytes flowed in 25 mM HEPES pH 8.0, 150 mM NaCl, 25 °C; equilibrium dose-response, global fit to a 1:1 binding model; settings: both partners purified

Sequence of RSPO1 (Q2MKA7 21-263): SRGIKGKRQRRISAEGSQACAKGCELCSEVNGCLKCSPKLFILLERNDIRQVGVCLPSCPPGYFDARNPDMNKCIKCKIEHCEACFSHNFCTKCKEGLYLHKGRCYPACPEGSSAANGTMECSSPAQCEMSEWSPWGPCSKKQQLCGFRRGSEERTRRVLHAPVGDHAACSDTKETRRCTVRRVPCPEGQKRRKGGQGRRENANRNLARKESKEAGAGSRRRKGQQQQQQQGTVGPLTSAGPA

Molecule | Kd (RNF43 (Homo sapiens) [1]) | Kd (RNF43 (Homo sapiens) [2]) | Kd [3]
RSPO1 (from UniProt Q2MKA7) | 8.5 µM | 750 nM | –
R-spondin 1 (RSPO1) furin-like domains Fu1 and Fu2 (domain or fragment, R-spondin 1, fragment consisting of the Fu1 and Fu2 domains; source: HEK 293E (EBNA) cells, purified (Ni-NTA, gel filtration); as described previously [18]) RISAEGSQACAKGCELCSEVNGCLKCSPKLFILLERNDIRQVGVCLPSCPPGYFDARNPDMNKCIKCKIEHCEACFSHNFCTKCKEGLYLHKGRCYPACPEGSSAANGTMECSSPA | – | – | 1900 nM
